Experiment [1] has as its target T1, human GDF15 (hGDF15), mature, wild-type (human, UniProt Q99988 197-308).
T1 construct: Bought recombinant protein: R&D Systems 957-GD-025/CF in most assays, 9279-GD in the crystal and the GDF15/GFRAL/RET assay; It was biotinylated in the GFRAL assay; also called hGDF15 (WT); rhGDF15
T1 sequence: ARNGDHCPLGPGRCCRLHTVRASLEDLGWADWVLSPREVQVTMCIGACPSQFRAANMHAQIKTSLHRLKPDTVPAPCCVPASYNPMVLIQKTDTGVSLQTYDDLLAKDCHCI
Briefly: ELISA, hGDF15 immobilised; binding at 5 ng/mL antibody, HuMAB2 = 100. The protocol:
A 100 μL hGDF15 solution (0.4 μg/ml) was added to a 96-well plate and left at 4° C. until the next morning to prepare a plate for ELISA. To the plate, 1% BSA was added for blocking for 1 hour. A dilution series of the culture supernatant containing the variant antibody was prepared from 30-fold dilution (common ratio of dilution factor was 3), and 100 μL of each solution was added to the ELISA plate and left for 2 hours. As a secondary antibody, an HRP conjugated anti-human IgG antibody (Gene Tex, GTX26759) (20000-fold dilution) was added and left for 1 hour. TMB (Sigma, T-0440) was used for color development reaction, and 2N sulfuric acid was used as a reaction terminator. The absorbance was measured at 450 nm.
(In general: ELISA stands for enzyme-linked immunosorbent assay.)

Experiment [2] deals with T1, human GDF15 (hGDF15), mature, wild-type. Briefly: ELISA, hGDF15 immobilised.

B1: H3-L48K (antibody, human IgG1, kappa, V domains shown)
VH: QVQLQESGPGLVKPSETLSLTCTVSGFSINSDCYWIWIRQPPGKGLEYIGYTFYSGITYYNPSLASRTTISRDTSKNQFSLKLSSVTAADTAVYYCARDCDYAMDYWGQGTLVTVSS
VL: DIQMTQSPSSLSASVGDRVTITCRASQKISNYLNWYQQKPGKAVKLLIHYTSTLHSGVPSRFSGSGSGTDYTLTISSLQPEDFATYFCQQGNTLPWTFGQGTKLEIKR
notes: In the label, L means the L chain; Tested as culture supernatant; also called HuMAB2 variant L48K
As for B1, the “fold change in binding strength compared to HuMAB2” value (from here on “fold change in binding strength”) in experiment [1] was ~1.5 fold.

B2: H120F-L7 (antibody, human IgG1, kappa, V domains shown)
VH: QVQLQESGPGLVKPSETLSLTCTVSGFSINSDCYWIWIRQPPGKGLEYIGYTFYSGITYYNPSLASRTTISRDTSKNQFSLKLSSVTAADTAVYYCARDCDFAMDYWGQGTLVTVSS
VL: DIQMTQSPSSLSASVGDRVTITCRASQDISNYLNWYQQKPGKAVKLLIHYTSTLHSGVPSRFSGSGSGTDYTLTISSLQPEDFATYFCQQGNTLPWTFGQGTKLEIKR
notes: In the label, H means the H chain; Tested as culture supernatant; also called HuMAB2 variant H120F
Take B2: the “fold change in binding strength” value in experiment [1] was ~1.5 fold.

B3: H3-L112D (antibody, human IgG1, kappa, V domains shown)
VH: QVQLQESGPGLVKPSETLSLTCTVSGFSINSDCYWIWIRQPPGKGLEYIGYTFYSGITYYNPSLASRTTISRDTSKNQFSLKLSSVTAADTAVYYCARDCDYAMDYWGQGTLVTVSS
VL: DIQMTQSPSSLSASVGDRVTITCRASQDISNYLNWYQQKPGKAVKLLIHYTSTLHSGVPSRFSGSGSGTDYTLTISSLQPEDFATYFCQQGDTLPWTFGQGTKLEIKR
notes: In the label, L means the L chain; Tested as culture supernatant; also called HuMAB2 variant L112D
B3: the “fold change in binding strength” value in experiment [1] is ~1.5 fold.

B4: H49D-L7 (antibody, human IgG1, kappa, V domains shown)
VH: QVQLQESGPGLVKPSETLSLTCTVSGFSINDDCYWIWIRQPPGKGLEYIGYTFYSGITYYNPSLASRTTISRDTSKNQFSLKLSSVTAADTAVYYCARDCDYAMDYWGQGTLVTVSS
VL: DIQMTQSPSSLSASVGDRVTITCRASQDISNYLNWYQQKPGKAVKLLIHYTSTLHSGVPSRFSGSGSGTDYTLTISSLQPEDFATYFCQQGNTLPWTFGQGTKLEIKR
notes: In the label, H means the H chain; also called HuMAB2 variant H49D
With B4, the binding result in experiment [2] was “binds”.

B5: H3-L74H (antibody, human IgG1, kappa, V domains shown)
VH: QVQLQESGPGLVKPSETLSLTCTVSGFSINSDCYWIWIRQPPGKGLEYIGYTFYSGITYYNPSLASRTTISRDTSKNQFSLKLSSVTAADTAVYYCARDCDYAMDYWGQGTLVTVSS
VL: DIQMTQSPSSLSASVGDRVTITCRASQDISNYLNWYQQKPGKAVKLLIHYTSTHHSGVPSRFSGSGSGTDYTLTISSLQPEDFATYFCQQGNTLPWTFGQGTKLEIKR
notes: In the label, L means the L chain; also called HuMAB2 variant L74H
For the molecule B5, the binding result in experiment [2] is listed as “binds”.

B6: H71Y-L7 (antibody, human IgG1, kappa, V domains shown)
VH: QVQLQESGPGLVKPSETLSLTCTVSGFSINSDCYWIWIRQPPGKGLEYIGYTYYSGITYYNPSLASRTTISRDTSKNQFSLKLSSVTAADTAVYYCARDCDYAMDYWGQGTLVTVSS
VL: DIQMTQSPSSLSASVGDRVTITCRASQDISNYLNWYQQKPGKAVKLLIHYTSTLHSGVPSRFSGSGSGTDYTLTISSLQPEDFATYFCQQGNTLPWTFGQGTKLEIKR
notes: In the label, H means the H chain; also called HuMAB2 variant H71Y
As to B6, the binding result in experiment [2] is recorded as “binds”.

B7: H49R-L7 (antibody, human IgG1, kappa, V domains shown)
VH: QVQLQESGPGLVKPSETLSLTCTVSGFSINRDCYWIWIRQPPGKGLEYIGYTFYSGITYYNPSLASRTTISRDTSKNQFSLKLSSVTAADTAVYYCARDCDYAMDYWGQGTLVTVSS
VL: DIQMTQSPSSLSASVGDRVTITCRASQDISNYLNWYQQKPGKAVKLLIHYTSTLHSGVPSRFSGSGSGTDYTLTISSLQPEDFATYFCQQGNTLPWTFGQGTKLEIKR
notes: In the label, H means the H chain; also called HuMAB2 variant H49R
B7: the binding result in experiment [2] is listed as “binds”.

B8: H3-L72F (antibody, human IgG1, kappa, V domains shown)
VH: QVQLQESGPGLVKPSETLSLTCTVSGFSINSDCYWIWIRQPPGKGLEYIGYTFYSGITYYNPSLASRTTISRDTSKNQFSLKLSSVTAADTAVYYCARDCDYAMDYWGQGTLVTVSS
VL: DIQMTQSPSSLSASVGDRVTITCRASQDISNYLNWYQQKPGKAVKLLIHYTFTLHSGVPSRFSGSGSGTDYTLTISSLQPEDFATYFCQQGNTLPWTFGQGTKLEIKR
notes: In the label, L means the L chain; also called HuMAB2 variant L72F
As to B8, the binding result in experiment [2] is reported as “binds”.

B9: H48S-L7 (antibody, human IgG1, kappa, V domains shown)
VH: QVQLQESGPGLVKPSETLSLTCTVSGFSISSDCYWIWIRQPPGKGLEYIGYTFYSGITYYNPSLASRTTISRDTSKNQFSLKLSSVTAADTAVYYCARDCDYAMDYWGQGTLVTVSS
VL: DIQMTQSPSSLSASVGDRVTITCRASQDISNYLNWYQQKPGKAVKLLIHYTSTLHSGVPSRFSGSGSGTDYTLTISSLQPEDFATYFCQQGNTLPWTFGQGTKLEIKR
notes: Tested as culture supernatant; also called HuMAB2 variant H48S
For B9, the “fold change in binding strength” value in experiment [1] is ~1.5 fold.

B10: H83R-L7 (antibody, human IgG1, kappa, V domains shown)
VH: QVQLQESGPGLVKPSETLSLTCTVSGFSINSDCYWIWIRQPPGKGLEYIGYTFYSGITYYNPSLRSRTTISRDTSKNQFSLKLSSVTAADTAVYYCARDCDYAMDYWGQGTLVTVSS
VL: DIQMTQSPSSLSASVGDRVTITCRASQDISNYLNWYQQKPGKAVKLLIHYTSTLHSGVPSRFSGSGSGTDYTLTISSLQPEDFATYFCQQGNTLPWTFGQGTKLEIKR
notes: In the label, H means the H chain; Tested as culture supernatant; also called HuMAB2 variant H83R
Consider B10, for which, in experiment [1], the “fold change in binding strength” value is ~1.5 fold.

Source of the values: US20230036655A1 (OTSUKA PHARMACEUTICAL, published 2023).
